Holding throughout (test): cell_activity
The subject of data set [1] is CCR5 ZFN SBS#8266, wild-type ZC linker (artificial (zinc finger-FokI)). The note with it: average of 2; ZFN pair.
Data set [2] deals with CCR5 ZFN SBS#8266, L6a linker (artificial (zinc finger-FokI)). Conditions: average of 2; ZFN pair.
Data set [3] has as its system CCR5 ZFN SBS#8266, L7a linker (artificial (zinc finger-FokI)). Conditions: ZFN pair.
In data set [4] the test system is mROSA-targeted ZFN pair, Wt/L7a linkers (artificial (zinc finger-FokI)). Conditions: Neuro2A; mock 0.4.
The test system of data set [5] is mROSA-targeted ZFN pair, Wt/Wt linkers (artificial (zinc finger-FokI)). The note with it: Neuro2A; mock 0.4; repeats 23.2 and 18.7.
The subject of data set [6] is rat IgM-targeted ZFN pair, ZC linker (artificial (zinc finger-FokI)). The note with it: rat C6 cells, CEL-I.
Data set [7] has as its system rat IgM-targeted ZFN pair, with L7a linker (artificial (zinc finger-FokI)). The note with it: rat C6 cells, CEL-I.

CCR5 ZFN SBS#8266, wild-type ZC linker (artificial (zinc finger-FokI)), sequence (chain, as listed by the source): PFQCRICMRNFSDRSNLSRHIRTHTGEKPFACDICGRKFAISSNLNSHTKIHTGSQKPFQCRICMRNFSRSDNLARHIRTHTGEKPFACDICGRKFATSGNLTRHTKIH
CCR5 ZFN SBS#8266, L6a linker (artificial (zinc finger-FokI)), sequence (chain, as listed by the source): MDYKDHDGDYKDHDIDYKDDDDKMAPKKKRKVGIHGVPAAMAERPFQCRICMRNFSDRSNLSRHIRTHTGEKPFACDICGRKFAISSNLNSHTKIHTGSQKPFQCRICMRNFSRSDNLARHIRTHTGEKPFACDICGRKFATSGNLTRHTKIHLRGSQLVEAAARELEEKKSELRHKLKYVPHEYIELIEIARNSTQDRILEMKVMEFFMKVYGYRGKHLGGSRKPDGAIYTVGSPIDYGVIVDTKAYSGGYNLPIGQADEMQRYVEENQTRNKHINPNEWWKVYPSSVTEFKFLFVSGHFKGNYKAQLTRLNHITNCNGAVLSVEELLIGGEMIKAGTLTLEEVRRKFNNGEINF

In turn, CCR5 ZFN target, 4 bp gap came in with an activity in data set [1] of 1.2 % NHEJ.

Take CCR5 ZFN target, 5 bp gap: the activity came out at 39.3 % NHEJ in data set [2] and 35 % NHEJ in data set [1]. For the substance CCR5 ZFN target, 6 bp gap, the activity in data set [3] (average of 2) turned out to be 31.8 % NHEJ; in data set [2], 25.4 % NHEJ; in data set [1], 11.1 % NHEJ. For CCR5 ZFN target, 7 bp gap, the activity stood at 39.6 % NHEJ in data set [3] (average of 2) and 5.1 % NHEJ in data set [2]. For the substance CCR5 ZFN target, 8 bp gap, the activity in data set [3] (average of 2 as printed) is 6.1 % NHEJ. With mROSA target, 6 bp gap, the activity turned out to be 7.5 % NHEJ in data set [4] and 22.6 % NHEJ in data set [5]. On to rat IgM target, 6 bp gap, for which the activity in data set [6] came to 1.93 % NHEJ; in data set [7], 2.43 % NHEJ.
